Results taken from patent publication US20170306005A1 (NASCIENT, published 2017).

Assays:
[1] = molecular target: T1, mouse tenascin-C rCd4-His-FBG (rat; mouse, UniProt P05540 207-392, limits assumed); assay: SPR, parental antibody
T1 construct: domain: domains 3 and 4; C-terminal FBG fusion; biotinylated in the ELISA screen; also called Mu TNC; mouse TNC rCd4-His-FBG; not shown: 6His tag
T1 sequence (chain (part 1 of 2)): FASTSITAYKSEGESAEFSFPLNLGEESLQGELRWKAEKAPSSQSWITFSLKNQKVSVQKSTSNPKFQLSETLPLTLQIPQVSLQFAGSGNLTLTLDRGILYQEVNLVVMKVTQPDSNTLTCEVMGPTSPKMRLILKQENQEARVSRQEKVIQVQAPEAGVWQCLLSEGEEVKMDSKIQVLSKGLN
T1 sequence (chain (part 2 of 2)): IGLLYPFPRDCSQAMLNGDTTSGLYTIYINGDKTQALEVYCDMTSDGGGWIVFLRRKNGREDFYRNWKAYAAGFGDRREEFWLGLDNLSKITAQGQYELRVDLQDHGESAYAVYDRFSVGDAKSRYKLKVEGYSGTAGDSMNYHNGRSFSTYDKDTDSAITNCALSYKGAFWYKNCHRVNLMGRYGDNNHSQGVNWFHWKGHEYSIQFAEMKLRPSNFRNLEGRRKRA

human Fc-His-FBG = molecular target: T2, human Fc-His-FBG (human, UniProt P24821 1974-2201); assay: cell-based or functional assay
T2 sequence: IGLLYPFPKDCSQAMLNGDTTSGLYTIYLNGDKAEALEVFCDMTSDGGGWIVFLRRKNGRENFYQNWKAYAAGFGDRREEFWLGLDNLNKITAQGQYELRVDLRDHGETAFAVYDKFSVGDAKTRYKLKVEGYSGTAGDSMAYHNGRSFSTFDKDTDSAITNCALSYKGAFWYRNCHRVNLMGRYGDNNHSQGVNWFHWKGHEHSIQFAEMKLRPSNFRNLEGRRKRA

[2] = molecular target: T3, human tenascin-C rCd4-His-FBG (rat; human, UniProt P05540 207-392, limits assumed); assay: SPR, captured Fab, 25 C
T3 construct: domain: domains 3 and 4; C-terminal FBG fusion; biotinylated in the ELISA and HTRF screens; also called Hu TNC; human TNC rCd4-His-FBG; not shown: 6His tag
T3 sequence (chain (part 1 of 2)): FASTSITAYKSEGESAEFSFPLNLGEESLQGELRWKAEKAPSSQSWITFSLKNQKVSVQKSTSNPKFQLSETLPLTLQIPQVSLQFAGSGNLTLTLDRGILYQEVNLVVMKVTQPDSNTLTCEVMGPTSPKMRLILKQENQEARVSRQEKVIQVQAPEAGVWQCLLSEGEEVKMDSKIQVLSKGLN
T3 sequence (chain (part 2 of 2)): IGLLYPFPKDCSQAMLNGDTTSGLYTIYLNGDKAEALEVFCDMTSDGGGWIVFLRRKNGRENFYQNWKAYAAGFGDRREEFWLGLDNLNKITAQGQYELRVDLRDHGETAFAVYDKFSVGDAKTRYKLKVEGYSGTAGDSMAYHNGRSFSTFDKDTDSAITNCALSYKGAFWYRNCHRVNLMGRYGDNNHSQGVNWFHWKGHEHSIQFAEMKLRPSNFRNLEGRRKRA
Description: (§1) Experiments were performed using a BIAcore T100 instrument with CM5 sensor chip according to the protocol provided with the Human Fab Capture Kit (GE, 28-9583-25). […] After reference signal subtraction, the data was fitted to a global 1:1 fit using the T100 BIAevaluation software (FIGS. 6 a-d).

[3] = molecular target: T1, mouse tenascin-C rCd4-His-FBG; assay: SPR, captured Fab, 25 C
Description: as §1

[4] = molecular target: T3, human tenascin-C rCd4-His-FBG; assay: SPR, 25 C; format not stated; SPR at 25 C
Human FGB-rCd4 = molecular target: T4, Human FGB-rCd4; assay: ELISA (DELFIA), antigen coated on the well, purified Fab at 50 nM, detected with anti-kappa or anti-lambda mAb and Europium-conjugated anti-mouse mAb
T4 construct: Not the same construct as m1, which has the FBG at the C terminus; also called human TNC FBG-rCD4; human tenascin-C FBG-rCd4-His (FBG at the N terminus of the rat Cd4 tag); not shown: rat Cd4 (domains 3 and 4) tag, the C-terminal His6 tag and the vector-derived junction residues of pBIOCAM4
T4 chain: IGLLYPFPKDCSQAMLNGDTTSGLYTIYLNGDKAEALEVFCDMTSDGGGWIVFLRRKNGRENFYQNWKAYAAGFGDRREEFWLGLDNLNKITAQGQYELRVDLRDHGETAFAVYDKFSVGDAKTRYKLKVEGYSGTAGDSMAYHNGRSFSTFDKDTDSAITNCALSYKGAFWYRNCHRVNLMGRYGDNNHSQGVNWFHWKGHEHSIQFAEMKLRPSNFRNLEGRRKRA

fold difference in affinity between human and mouse rCd4-his-FBG [1]: 6.9 fold | IC50, inhibition of Fc-His-HuFBG-evoked IL-8 release, THP1-Blue cells (human Fc-His-FBG): 28.5 nM | IC50, inhibition of Fc-His-HuFBG-evoked alkaline phosphatase, THP1-Blue cells (human Fc-His-FBG): 20.6 nM | Kd [2]: 11.4 nM | koff [2]: 0.00563 s⁻¹ | kon [2]: 496000 M⁻¹ s⁻¹ | Kd [3]: 78.6 nM | koff [3]: 0.0347 s⁻¹ | kon [3]: 441000 M⁻¹ s⁻¹ | Kd [4]: 15 nM | binding result (Human FGB-rCd4): binds
B1: Fab 2A5 (Fab, V domains shown)
VH: EVRLVQSGAEVKKPGASVKVSCKVSGYTLTELSMHWVRQAPGKGLEWMGGFDPEDGETIYAQKFQGRVTMTEDTSTDTAYMELSSLRSEDTAVYYCATAQKETYALTYWGQGTLVTVSS
VL: DIQMTQSPASLPTSVGDRVTITCRASQYIQGFLNWYQQKPGKAPRLLIYAASTLQDGVPSRFSGSGYGTDFTLTISSLQPEDFATYYCQQSYSTPWTFGQGTKVEIKR
notes: monomeric Fab
